Target: the molecule itself
Test: SDS-PAGE under mildly denaturing conditions

B1: gB730 L700G/L711G (domain or fragment)
chain: not shown
With B1 the “stoichiometry N” value was 3.
